From PMC9860449

How the values were obtained:
[1] = biological target: FUS^WT released from GST-TEV-FUS by TEV protease (UniProt P35637)
[2] = biological target: FUS^WT released from GST-TEV-FUS by TEV protease (UniProt P35637); remark: listed apart in the source
[3] = biological target: FUS released from 6xHis-MBP-FUS by TEV protease (UniProt P35637)

Substance	FUS fibrillization left (normalised turbidity at 395 nm; 3 μM FUS, TEV protease) at the highest concentration of H1-H13 tested [1] [%]	reduction of turbidity of preformed FUS fibrils after 80 min at the highest concentration of H1-H13 tested [2] [%]	reduction of number and total area of preformed FUS:RNA droplets (1 μM FUS, 1 μM U40 RNA; 0.75 μM H1-H13, 2 h) [3] [%]	reduction of number and total area of preformed FUS:RNA droplets (1 μM FUS, 1 μM U40 RNA; 0.75 μM Kapβ2, 2 h) [3] [%]
Kapβ2 H1-H13 (residues 1–604) (from UniProt Q92973-2 1-604) (domain or fragment)	40	50	44	
Karyopherin-β2 (Kapβ2), full-length, wild type (from UniProt Q92973-2 1-890) (natural protein)				100
